Columns and labels:
Experiment in all cases: ELISA, Fc fusion protein coated at 1 µg/ml, TPP-2090 at 75 nM, Amplex Red;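 note: binding reported as ELISA signal intensity in Rfu against a panel of TNF receptor superfamily members presented as Fc fusion proteins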
[1] = target: T1, Apo-3 (TNFRSF25) Fc fusion protein (Human, UniProt Q93038 25-199)
T1 construct: extracellular domain; bought
T1 sequence (looked up): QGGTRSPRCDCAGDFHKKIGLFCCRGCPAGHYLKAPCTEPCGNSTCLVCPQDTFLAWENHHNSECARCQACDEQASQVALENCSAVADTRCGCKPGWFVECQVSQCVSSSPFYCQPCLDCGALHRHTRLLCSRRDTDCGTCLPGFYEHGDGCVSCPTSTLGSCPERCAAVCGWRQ
From the text: (§1) Shown is the result of an ELISA: Y is “ELISA signal intensity [Rfu]”; X are “TNF receptor superfamily proteins tested (Fc-fusion proteins)”: 1 is “TWEAKR”; 2 is “TWEAKR”; 3 is “Apo-3”; 4 is “Trail-R1”; 5 is “Trail-R2”; 6 is “CD385”; 7 is “CD95”; 8 is “Rank”; 9 is “TNF-R1”; 10 is “TNF-R2”; 11 is “BAFF-R”; 12 is “DcR3”; 13 is “BCMA”; 14 is “TACI”; 15 is “OX40”; 16 is “CD30”; 17 is “CD27”; 18 is “CD40”; 19 is “Osteoprotegerin”; 20 is “EDAR”; 21 is “GITR”; 22 is “HVEM”; 23 is “NGF R”; 24 is “Trail R3”; 25 is “Lymphotioxin B R”; 26 is “Trail R4”; 27 is “EDA2R”; 28 is “TROY”; 29 is “RELT”; 30 is “4-1BB”.
(§2) To collect dose-response data a serial 3fold dilution of biotinylated IgG starting with a concentration of 2 μM was used as soluble binding partner. Detection was done with anti-hIgG1-HRP and Amplex Red.

[2] = target: T2, CD-385 (TNFRSF21) Fc fusion protein (Human, UniProt O75509 42-349)
T2 construct: extracellular domain; bought
T2 sequence (looked up): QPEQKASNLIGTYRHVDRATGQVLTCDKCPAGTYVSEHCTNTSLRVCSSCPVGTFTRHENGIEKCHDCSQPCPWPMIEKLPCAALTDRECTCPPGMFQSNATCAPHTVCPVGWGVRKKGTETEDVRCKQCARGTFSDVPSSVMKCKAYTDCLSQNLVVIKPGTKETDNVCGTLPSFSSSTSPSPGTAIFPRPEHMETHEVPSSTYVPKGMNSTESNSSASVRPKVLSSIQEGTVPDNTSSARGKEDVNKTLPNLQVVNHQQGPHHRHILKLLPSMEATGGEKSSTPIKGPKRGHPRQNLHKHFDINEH
From the text: as §1, §2

[3] = target: T3, TNF-R2 (TNFRSF1B) Fc fusion protein (Human, UniProt P20333 23-257)
T3 construct: extracellular domain; bought
T3 sequence (looked up): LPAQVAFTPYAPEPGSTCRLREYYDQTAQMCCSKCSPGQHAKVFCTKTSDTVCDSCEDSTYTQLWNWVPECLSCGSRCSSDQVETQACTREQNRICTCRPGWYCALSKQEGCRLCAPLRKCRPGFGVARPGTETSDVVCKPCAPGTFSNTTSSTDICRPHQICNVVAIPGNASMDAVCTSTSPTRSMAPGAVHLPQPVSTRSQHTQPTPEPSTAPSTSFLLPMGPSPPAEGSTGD
From the text: as §1, §2

[4] = target: T4, BAFF-R (TNFRSF13C) Fc fusion protein (Human, UniProt Q96RJ3 1-78)
T4 construct: extracellular domain; bought
From the text: as §1, §2

[5] = target: T5, TACI (TNFRSF13B) Fc fusion protein (Human, UniProt O14836 1-165)
T5 construct: extracellular domain; bought
T5 sequence (looked up): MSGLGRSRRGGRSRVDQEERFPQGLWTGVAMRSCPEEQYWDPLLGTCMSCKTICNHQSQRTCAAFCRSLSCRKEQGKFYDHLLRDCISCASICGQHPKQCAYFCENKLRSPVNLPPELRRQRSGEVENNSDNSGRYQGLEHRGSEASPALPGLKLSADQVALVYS
From the text: as §1, §2

[6] = target: T6, CD40 (TNFRSF5) Fc fusion protein (Human, UniProt P25942 21-193)
T6 construct: extracellular domain; bought
From the text: as §1, §2

[7] = target: T7, Trail R3 (TNFRSF10C) Fc fusion protein (Human, UniProt O14798 26-221, limits assumed)
T7 construct: extracellular domain; bought
T7 sequence (looked up): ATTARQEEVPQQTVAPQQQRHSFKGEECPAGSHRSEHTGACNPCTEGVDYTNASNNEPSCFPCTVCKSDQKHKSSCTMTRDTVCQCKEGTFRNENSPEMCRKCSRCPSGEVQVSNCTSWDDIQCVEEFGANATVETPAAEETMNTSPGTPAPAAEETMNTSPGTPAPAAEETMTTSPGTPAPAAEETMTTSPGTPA
From the text: as §1, §2

[8] = target: T8, Trail R 4 (TNFRSF10D) Fc fusion protein (Human, UniProt Q9UBN6 56-211)
T8 construct: extracellular domain; bought
T8 sequence (looked up): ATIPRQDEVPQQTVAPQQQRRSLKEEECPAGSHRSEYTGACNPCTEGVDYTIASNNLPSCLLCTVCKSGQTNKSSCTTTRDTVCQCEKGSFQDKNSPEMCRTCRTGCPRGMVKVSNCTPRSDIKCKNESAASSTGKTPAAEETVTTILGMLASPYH
From the text: as §1, §2

[9] = target: T9, TROY (TNFRSF19) Fc fusion protein (Human, UniProt Q9NS68 30-170)
T9 construct: extracellular domain; bought
T9 sequence (looked up): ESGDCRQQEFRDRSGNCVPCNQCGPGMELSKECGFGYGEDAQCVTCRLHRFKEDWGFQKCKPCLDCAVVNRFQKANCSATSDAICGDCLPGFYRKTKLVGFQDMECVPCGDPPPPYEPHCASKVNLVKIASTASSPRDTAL
From the text: as §1, §2

[10] = target: T10, RELT (TNFRSF19L) Fc fusion protein (Human, UniProt Q969Z4 26-162)
T10 construct: extracellular domain; bought
T10 sequence (looked up): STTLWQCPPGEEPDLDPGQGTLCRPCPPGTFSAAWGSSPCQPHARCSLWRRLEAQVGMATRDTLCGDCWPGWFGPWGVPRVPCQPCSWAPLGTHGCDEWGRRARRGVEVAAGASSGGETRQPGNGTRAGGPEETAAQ
From the text: as §1, §2

[11] = target: T11, 4-1BB (TNFRSF9) Fc fusion protein (Human, UniProt Q07011 24-186)
T11 construct: extracellular domain; bought
T11 sequence (Q07011 24-186): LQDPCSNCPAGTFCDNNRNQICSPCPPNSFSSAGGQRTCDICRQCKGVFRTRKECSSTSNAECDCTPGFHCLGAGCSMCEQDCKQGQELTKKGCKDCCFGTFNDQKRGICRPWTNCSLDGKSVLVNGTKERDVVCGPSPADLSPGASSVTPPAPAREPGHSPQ
From the text: as §1, §2

T6 sequence (P25942 21-193): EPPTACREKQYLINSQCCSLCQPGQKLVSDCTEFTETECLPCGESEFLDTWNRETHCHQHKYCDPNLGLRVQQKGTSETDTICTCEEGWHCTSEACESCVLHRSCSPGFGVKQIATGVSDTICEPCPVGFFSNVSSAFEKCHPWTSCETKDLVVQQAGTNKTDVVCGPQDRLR

binding result [1]: no binding (tested: 75 nM)
binding result [2]: no binding (tested: 75 nM)
binding result [3]: no binding (tested: 75 nM)
binding result [4]: no binding (tested: 75 nM)
binding result [5]: no binding (tested: 75 nM)
binding result [6]: no binding (tested: 75 nM)
binding result [7]: no binding (tested: 75 nM)
binding result [8]: no binding (tested: 75 nM)
binding result [9]: no binding (tested: 75 nM)
binding result [10]: no binding (tested: 75 nM)
binding result [11]: no binding (tested: 75 nM)
B1: TPP-2090 (antibody, human IgG1, kappa, V domains shown)
VH: EVQLLESGGGLVQPGGSLRLSCAASGFTFSPYPMIWVRQAPGKGLEWVSYISPSGGSTHYADSVKGRFTISRDNSKNTLYLQMNSLRAEDTAVYYCARGGDTYFDYFDYWGQGTLVTVSS
VL: DIQMTQSPSSLSASVGDRVTITCRASQSISGYLNWYQQKPGKAPKLLIYQASSLQSGVPSRFSGSGSGTDFTLTISSLQPEDFATYYCQQSYTSPFITFGQGTKVEIKR
notes: Human IgG1
